T1: Methylobacterium extorquens PqqE (His6-MePqqE) (Methylobacterium extorquens, UniProt P71517 1-384)
T1 sequence (looked up): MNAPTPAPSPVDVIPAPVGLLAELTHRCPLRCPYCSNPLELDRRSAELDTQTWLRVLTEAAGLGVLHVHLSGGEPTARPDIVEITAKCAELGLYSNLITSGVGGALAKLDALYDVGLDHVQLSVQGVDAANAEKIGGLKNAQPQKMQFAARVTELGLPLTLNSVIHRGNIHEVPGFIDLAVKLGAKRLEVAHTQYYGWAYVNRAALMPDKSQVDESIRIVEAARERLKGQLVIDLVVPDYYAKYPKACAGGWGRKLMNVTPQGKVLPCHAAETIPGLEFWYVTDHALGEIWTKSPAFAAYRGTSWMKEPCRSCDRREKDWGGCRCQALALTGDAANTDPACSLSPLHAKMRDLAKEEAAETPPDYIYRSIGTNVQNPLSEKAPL

B1: MePqqD + MePqqA binary complex (complex, Methylobacterium extorquens)
chain: MEPTAFSGSDVPRLPRGVRLRFDEVRNKHVLLAPERTFDLDDNAVAVLKLVDGRNTVSQIAQILGQTYDADPAIIEADILPMLAGLAQKRVLER
peptide: KWAAPIVSEISVGMEVTSYESAEIDTFN
B2: Methylobacterium extorquens PqqD (MePqqD), truncation of the natural MePqqCD fusion (domain or fragment)
chain: B1 chain
B3: MePqqA precursor peptide (without the N-terminal methionine, cysteine 11 changed to serine) (peptide)
peptide: KWAAPIVSEISVGMEVTSYESAEIDTFN

Experiment [1] concerns the target PqqE (Methylorubrum extorquens) (UniProt B7KXC6). The note with it: cited from earlier work.
The target in experiment [2] is PqqD (Methylorubrum extorquens) (UniProt Q49148). The note with it: cited from earlier work.
Sequence of PqqD (Methylorubrum extorquens) (Q49148 whole entry): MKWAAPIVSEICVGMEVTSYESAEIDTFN
The target in experiment [3] is PqqE (Methylorubrum extorquens) (UniProt B7KXC6). To be noted: cited from earlier work. This is another data set of the same source.
Experiment [4] has as its target T1, Methylobacterium extorquens PqqE …. Kind of experiment: NMR titration.
Experiment [5] concerns the target B2. Briefly: NMR titration.

The values below come from article PMC5526462 (Biochemistry, 2017).

Where two headings read alike, the source gives them in different places.

In general, Kd refers to the concentration at which binding is half-saturated. In the case of PqqD-PqqA complex (from UniProt Q49148), in experiment [1], the Kd is 5 µM.

Regarding PqqA (from UniProt Q49148), in experiment [2], the Kd is 0.2 µM.

PqqD (from UniProt Q49148): the Kd in experiment [3] was 12 µM.

In the case of B1, the binding result in experiment [4] is recorded as “binds”.

On to B2, for which, in experiment [4], the binding result is given as “binds”.

As for B3, the binding result in experiment [5] was “binds”.
